According to patent EP4574844A1 (Numab Therapeutics AG, dated 2025):
Where two headings read alike, the source gives them in different places.

Key:
[1] = biological target: T1, human PD-L1 on the cell surface (human, UniProt Q9NZQ7 19-290); assay: cell-based or functional assay
Fc-tagged human PDL2 = biological target: T2, Fc-tagged human PDL2 (human, UniProt Q9BQ51 20-220, limits assumed); assay: SPR, Fc-tagged human PDL2 captured, scFv as analyte
T2 sequence (looked up): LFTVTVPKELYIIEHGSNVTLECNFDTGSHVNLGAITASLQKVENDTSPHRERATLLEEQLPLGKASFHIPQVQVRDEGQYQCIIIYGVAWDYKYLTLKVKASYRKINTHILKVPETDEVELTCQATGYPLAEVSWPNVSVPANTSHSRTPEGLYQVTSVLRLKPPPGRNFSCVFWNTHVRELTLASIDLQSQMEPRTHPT

recombinant human PDL1 [2] = biological target: T3, recombinant human PDL1 (human, UniProt Q9NZQ7 19-238, limits assumed); assay: SPR
T3 construct: SPR antigen; also called CD274; B7-H1

[3] = biological target: T4, recombinant cynomolgus PDL1 (cynomolgus monkey, UniProt G7PSE7 19-238); assay: SPR
T4 construct: also called cynom; PDL1
T4 sequence (G7PSE7 entry or part of it): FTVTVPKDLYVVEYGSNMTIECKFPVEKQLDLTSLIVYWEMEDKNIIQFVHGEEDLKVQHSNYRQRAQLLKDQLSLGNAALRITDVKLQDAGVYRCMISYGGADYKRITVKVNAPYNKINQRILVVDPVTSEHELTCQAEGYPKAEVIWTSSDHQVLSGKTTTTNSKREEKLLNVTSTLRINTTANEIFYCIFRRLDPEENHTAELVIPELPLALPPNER

[4] = biological target: T1, human PD-L1 on the cell surface; assay: cell-based or functional assay; remark: listed apart in the source
[5] = biological target: T5, human CD47 on the cell surface (human, UniProt Q08722 19-323); assay: cell-based or functional assay
recombinant human PDL1 [6] = biological target: T3, recombinant human PDL1; assay: SPR, antigen immobilised, antibody as analyte
recombinant human CD47 = recombinant human CD47 (human, UniProt Q08722 19-139, limits assumed); assay: SPR, antigen immobilised, antibody as analyte
[7] = biological target: T1, human PD-L1 on the cell surface; assay: cell-based or functional assay; remark: listed apart in the source
[8] = biological target: T5, human CD47 on the cell surface; assay: cell-based or functional assay; remark: listed apart in the source

B1: PRO1392 (scFv)
scFv: DIQMTQSPSSLSASVGDRVTITCQASQSINDYLAWYQQKPGKAPKLLIYKASTLASGVPSRFSGSGSGTDFTLTISSLQPEDFATYYCQQGYIITDIDNVFGTGTKVTVLGGGGGSGGGGSGGGGSGGGGSQVQLQESGPGLVKPSETLSLTCKASGFSFSSGYDMCWVRQPPGKGLEWIACVVAGSVDITYYASWAKGRVTISKDSSKNQVSLKLSSVTAADTAVYYCARKDAYSDAFNLWGQGTLVTVSS
notes: anti-PDL1 scFv (VL-linker-VH); also called 33-03-G02-sc18
PDL1/PD-1 EC50 [nM], NFAT reporter gene assay [1]: 0.97 nM
PDL1/PD-1 Max. inhibition (rel. to avelumab) [%] [1]: 104%
binding result (Fc-tagged human PDL2): no binding (tested: 180 nM)
Kd (recombinant human PDL1 [2]): 8.6 pM
koff (recombinant human PDL1 [2]): 4.8e-05 s⁻¹
kon (recombinant human PDL1 [2]): 5.6e+06 M⁻¹ s⁻¹
Kd [3]: 6.5 pM
koff [3]: 3.4e-05 s⁻¹
kon [3]: 5.2e+06 M⁻¹ s⁻¹

B2: PRO5053 (antibody)
chain 1: DVQMTQSPSSLSASVGDRVTITCQASQSISSWVSWYQQKPGKPPKLLIYRGGYLESGVPSRFSASGSGTDFTLTISSLQPEDFATYYCQSTDSSTYGGAFGCGTKVTVLGGGGGSGGGGSGGGGSGGGGSQQVVESGGGLVQPGGSLRLSCAVSGIDLNSYAMTWVRQAPGKCLEWIGYIGSASSTYYASWASGRFTISKDNSKNTVYLQMNSLRAEDSAVYFCARGSTYINIWGQGTLVKVSSEPKSSDKTHTCPPCPAPELLGGPSVFLFPPKPKDTLMISRTPEVTCVVVDVSHEDPEVKFNWYVDGVEVHNAKTKPREEQYNSTYRVVSVLTVLHQDWLNGKEYKCKVSNKALPAPIEKTISKAKGQPREPQVYTLPPCREEMTKNQVSLSCAVKGFYPSDIAVEWESNGQPENNYKTTPPVLDSDGSFFLVSKLTVDKSRWQQGNVFSCSVMHEALHNHYTQKSLSLSPGKGGGGSGGGGSDIQMTQSPSSLSASVGDRVTITCQSSESVYSNNQLSWYQQKPGQPPKLLIYDASDLASGVPSRFSGSGSGTDFTLTISSLQPEDFATYYCAGGFSSSSDTAFGCGTKLTVLGGGGGSGGGGSGGGGSGGGGSEVQLVESGGGLVQPGGSLRLSCAASGFSLSSNAMGWVRQAPGKCLEYIGIISVGGFTYYASWAKGRFTISRDNSKNTVYLQMNSLRAEDSATYFCARDRHGGDSSGAFYLWGQGTLVKVSS
chain 2: not shown
notes: anti-PDL1 x CD47 x (hSA dummy domain); also called PRO5052 with dummy domain for LILRB2-BD
PD-L1 driven EC50 [nM], phagocytosis of H292 cells [4]: 0.19 nM
CD47 driven EC50 [nM], phagocytosis of H292 cells [5]: 28.2 nM
Kd (recombinant human PDL1 [6]): 13.3 pM
koff (recombinant human PDL1 [6]): 2.72e-05 s⁻¹
kon (recombinant human PDL1 [6]): 2.05e+06 M⁻¹ s⁻¹
Kd (recombinant human CD47): 49700 pM
koff (recombinant human CD47): 0.0265 s⁻¹
kon (recombinant human CD47): 533000 M⁻¹ s⁻¹
PD-L1 driven EC50 [nM], phagocytosis of H292 cells [7]: 0.18 nM
CD47 driven EC50 [nM], phagocytosis of A375 cells [8]: 27.5 nM
CD47 driven EC50 [nM], phagocytosis of H292 cells [8]: 28.4 nM
